US20220411517A1 (LEO PHARMA A S, published 2022)
Blank lines part the entries; values can stand above or below the binder they belong to.

Key:
[1] = target: T1, hIL-1RAP(1-367)_F-chLys_Avi (human, biotinylated (Avi tag) in SPR and ELISA binning; unlabeled in SET); assay: SPR (Biacore), biotinylated antigen captured, FabCys-AviHis as analyte, 1:1 fit
T1 construct: also called human IL-1RAcP (AG-12210)
Experimental: (§1) Approximately 3000 RU capture reagent was bound. This surface was used to load biotinylated antigen to generate a low-density surface for subsequent kinetic characterization (approx. 60-100 RU antigen loaded). […] After injecting the last and highest analyte concentration, a long dissociation phase was recorded. […] A blank injection of assay buffer (HBS-EP+) following the same injection pattern as described above was recorded and subtracted from specific sensorgrams during analysis (double referencing). At the end of each cycle, the sensor was regenerated with one 120 s injection of 6 M guanidine hydrochloride in 250 mM NaOH, which completely removed capture reagent with loaded biotinylated antigen and bound Fab fragments. The obtained sensorgrams were fitted to a monovalent binding model using Biacore Insight Evaluation Software. The obtained values for rate constants kₒₙ and koff were used to calculate KD.

[2] = target: T2, cyIL-1RAP(1-367)_F-chLys_Avi (cynomolgus, biotinylated (Avi tag) in SPR; unlabeled in SET); assay: SPR (Biacore), biotinylated antigen captured, FabCys-AviHis as analyte, 1:1 fit; comment: Koff approaching assay limit
T2 construct: cynomolgus IL-1RAcP (21-367) is UniProt A0A2K5X5J5; also called cynomolgus IL-1RAcP (AG-12211)
Experimental: as §1

[3] = target: T1, hIL-1RAP(1-367)_F-chLys_Avi; assay: ELISA binning; competitor: coated CAN04 FabCys-AviHis; 1.5 nM biotinylated human IL-1RAcP (AG-12210) pre-incubated with the titrated Fab; captured IL-1RAcP detected with streptavidin-AP
Experimental: (§2) Epitope binning was performed using an ELISA-based competition assay. The experiments were performed using either IgG1f_AEASS or FabCys-AviHis. Antibodies were diluted to three (3) nM (for IgGs) or to 20 nM (in case of Fabs) in PBS. […] The next day 90 μL/well blocking solution (5% BSA in PBS) was added to the plate followed by an incubation at RT for at least 1 h. During incubation, the competing antibodies, including reference and negative control antibodies, were diluted in assay buffer (1xPBS, 0.5% BSA, 0.02% Tween). […] Following the incubation of the blocking solution, the ELISA plates were washed 3× with PBST. Subsequently, 20 μl/well of the prepared antibody/antigen solution was transferred to the wells and incubated for 30 min with gentle agitation. Subsequently, plates were washed 3× using PBS-T.
(§3) For detection 20 μl of a prepared streptavidin-alkaline phosphatase conjugate solution was added to the wells in order to detect bound biotinylated human IL-1RAcP. Incubation happened for 30 min with gentle agitation. Following the incubation with streptavidin-alkaline phosphatase conjugate, assay plates were washed 5× with PBS-T. Then 20 μl of AttoPhos substrate (diluted 1:5 in H₂O) was added to the wells. Plates were incubated for 10 min at RT and readout happened using a Tecan M1000 Pro Reader.
(§4) Every graph represents an individual first antibody in the FabCys-AviHis format coated on the surface. […] Subsequently, preformed antigen antibody complex was added to the respective wells with the surface coated first antibody. Detection happened via the biotin of IL-1RAcP using a streptavidin-alkaline phosphatase conjugate.

[4] = target: T2, cyIL-1RAP(1-367)_F-chLys_Avi; assay: SPR (Biacore), biotinylated antigen captured, FabCys-AviHis as analyte, 1:1 fit; comment: Koff at assay limit
Experimental: as §1

[5] = target: T1, hIL-1RAP(1-367)_F-chLys_Avi; assay: ELISA binning; competitor: coated Y024148 FabCys-AviHis; 1.5 nM biotinylated human IL-1RAcP (AG-12210) pre-incubated with the titrated Fab; captured IL-1RAcP detected with streptavidin-AP
Experimental: as §2
For detection 20 μl of a prepared streptavidin-alkaline phosphatase conjugate solution was added to the wells in order to detect bound biotinylated human IL-1RAcP. Incubation happened for 30 min with gentle agitation. Following the incubation with streptavidin-alkaline phosphatase conjugate, assay plates were washed 5× with PBS-T. Then 20 μl of AttoPhos substrate (diluted 1:5 in H₂O) was added to the wells. Plates were incubated for 10 min at RT and readout happened using a Tecan M1000 Pro Reader. […]

[6] = target: T1, hIL-1RAP(1-367)_F-chLys_Avi; assay: ELISA binning; competitor: coated Y024149 FabCys-AviHis (sheet title Y024149_FAB COATED); 1.5 nM biotinylated human IL-1RAcP (AG-12210) pre-incubated with the titrated Fab; captured IL-1RAcP detected with streptavidin-AP
Experimental: as §2, §3, §4

[7] = target: T1, hIL-1RAP(1-367)_F-chLys_Avi; assay: ELISA binning; competitor: coated Y024084 FabCys-AviHis (sheet title Y024084_FAB COATED); 1.5 nM biotinylated human IL-1RAcP (AG-12210) pre-incubated with the titrated Fab; captured IL-1RAcP detected with streptavidin-AP
Experimental: as §2, §3, §4

[8] = target: T3, human IL-1RAcP on cells (human, UniProt Q9NPH3 21-570); assay: cell-based or functional assay
[9] = target: cynomolgus IL-1RAcP on cells (cynomolgus, UniProt A0A2K5X5J5 21-570); assay: cell-based or functional assay
[10] = target: T1, hIL-1RAP(1-367)_F-chLys_Avi; assay: solution equilibrium titration (SET), ECL read-out, IgG
Experimental: (§5) MSD SulfoTAG™ NHS-Ester (Meso Scale Diagnostics) according to the manufacturer's instructions. […] Serial dilutions of unlabeled antigen were prepared, starting with a concentration at least 10 times higher than the expected KD. Wells without antigen were used to determine Bₘₐₓ values;
(§6) wells containing only assay buffer were used to determine background. […] MSD plates were coated with antigen on standard plates (30 μL per well). After washing the plate with PBS with 0.05% Tween 20, the equilibrated samples were transferred to the plates and incubated for 20 min. […] After washing the MSD plate and adding 30 μL/well MSD Read Buffer T with surfactant, electrochemiluminescence signals were detected using a MESO SECTOR S 600 (Meso Scale Diagnostics).
(§7) The data was evaluated with XLfit (IDBS) software applying customized fitting models.

[11] = target: T2, cyIL-1RAP(1-367)_F-chLys_Avi; assay: as above
Experimental: as §5, §6, §7

[12] = target: T4, mouse (AG-12212) IL-1RAcP (mouse, UniProt Q61730 21-367, limits assumed); assay: ELISA in Fc-capture mode of the IgGs, mouse IL-1RAcP (AG-12212), S/BG
T4 construct: Recombinant tagged antigen; also called recombinant mouse IL-1RAcP; mouse IL-1RAP
Text: (§8) Bound antibodies were detected using respective alkaline-phosphatase (AP) coupled secondary antibodies in combination with ‘AttoPhos’ fluorescence substrate. Multiple washing steps have been performed in between individual assay steps.

[13] = target: T5, human IL1RAcP domain 1 (AG-12335) (human); assay: ELISA on directly coated human IL-1RAcP domain 1 (AG-12335), IgG titrated, S/BG
T5 construct: also called domain 1 of human IL-1RAcP
T5 chain: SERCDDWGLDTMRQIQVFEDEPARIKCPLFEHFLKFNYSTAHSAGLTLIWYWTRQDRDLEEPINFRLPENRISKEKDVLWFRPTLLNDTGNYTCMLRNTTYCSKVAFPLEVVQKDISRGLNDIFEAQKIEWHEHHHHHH
Experimental: All were assessed with direct coating of the antigen. […] An anti-His antibody served as positive control.

[14] = target: T6, human IL1RAcP domain 3 (AG-12127) (human); assay: ELISA on directly coated human IL-1RAcP domain 3 (AG-12127), IgG titrated, S/BG
T6 construct: also called domain 3 of human IL-1RAcP
T6 chain: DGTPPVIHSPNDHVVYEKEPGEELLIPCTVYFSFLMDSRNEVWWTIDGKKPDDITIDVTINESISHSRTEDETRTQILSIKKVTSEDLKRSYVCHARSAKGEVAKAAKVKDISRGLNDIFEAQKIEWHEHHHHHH

[15] = target: T7, human IL1RAcP domain 1/2 (AG-12337) (human); assay: ELISA on directly coated human IL-1RAcP domain 1/2 (AG-12337), IgG1f_AEASS titrated, S/BG
T7 construct: also called domain 1/2 of human IL-1RAcP

[16] = target: T3, human IL-1RAcP on cells; assay: FACS on Flp-In CHO cells over-expressing human IL-1RAcP, IgG1f_AEASS titrated 1e-12 to 2e-7 M, median FL2-H over background
[17] = target: T1, hIL-1RAP(1-367)_F-chLys_Avi; assay: ELISA on human IL-1RAcP (AG-12210), IgG1f_AEASS titrated 0.007-200 nM, AP-coupled secondary antibody with AttoPhos, signal over background (S/BG)
Text: as §8

[18] = target: T2, cyIL-1RAP(1-367)_F-chLys_Avi; assay: ELISA on cynomolgus IL-1RAcP (AG-12211), IgG1f_AEASS titrated 0.007-200 nM, AP-coupled secondary antibody with AttoPhos, signal over background (S/BG)
Text: as §8

- Kd [1]: 0.018 nM
- Kd [2]: 0.008 nM
- IC50 (read off the curve) [3]: ~1 nM
B1: Y024148_h_FabCys-AviH (Fab, V domains shown)
VH: EVQLVESGGGLVQPGGSLRLSCAASGGTIGGSAVHWVRQAPGKGLVWVSRILTYSSTTQYAESVKGRFTISRDNAKNTLYLQMNSLRAEDTAVYYCARGSSEYPKFDIWGQGTLVTVSS
VL: DIQMTQSPSTLSASVGDRVTITCRASQSISSWLAWYQQKPGKAPKLLIYDASSLESGVPSRFSGSGSGTEFTLTISSLQPEDFATYYCHQLLIYPHTFGQGTKVEIKR
notes: Disulphide-linked Fab with Avi and His tags; also called Y024148 in FabCys-AviHis format

- Kd [1]: 0.025 nM
- Kd [4]: 0.006 nM
- IC50 (read off the curve) [3]: ~1 nM
- IC50 (read off the curve) [5]: ~0.7 nM
- IC50 (read off the curve) [6]: ~0.7 nM
- IC50 (read off the curve) [7]: ~0.7 nM
B2: Y024149_h_FabCys-AviH (Fab, V domains shown)
VH: EVQLVESGGGLVQPGGSLRLSCAASGGTFGGSAMHWVRQAPGKGLVWVSRILTYGGIATYAESVKGRFTISRDNAKNTLYLQMNSLRAEDTAVYYCARGSSEYPKFDIWGQGTLVTVSS
VL: DIQMTQSPSTLSASVGDRVTITCRASQSISSWLAWYQQKPGKAPKLLIYDASSLESGVPSRFSGSGSGTEFTLTISSLQPEDFATYYCHQLLIYPHTFGQGTKVEIKR
notes: Disulphide-linked Fab with Avi and His tags; also called Y024149 in FabCys-AviHis format

- IC50, IFNγ release, PBMC stimulated with IL-1β [8]: 5 nM
- IC50, IFNγ release, PBMC stimulated with IL-33 [8]: 1.8 nM
- IC50, IL-8 release, HDFa stimulated with IL-1α [8]: 24 nM
- IC50, IL-8 release, HDFa stimulated with IL-36α [8]: 0.05 nM
- IC50, IL-8 release, HDFa stimulated with IL-36β [8]: 0.15 nM
- IC50, IL-8 release, HDFa stimulated with IL-36γ [8]: 0.067 nM
- IC50, IL-8 release, HEKa stimulated with IL-1β [8]: 162 nM
- IC50, IL-8 release, HEKa stimulated with IL-36β [8]: 0.12 nM
- IC50, IL-8 release, CyDFa stimulated with cynomolgus IL-1β [9]: 0.48 nM
- Kd [10]: 0.011 nM
- Kd [11]: 0.015 nM
- binding result [12]: no binding (tested: 200 nM)
- binding result [13]: no binding (tested: 2e-7 M)
- binding result [14]: no binding (tested: 2e-7 M)
- EC50 (read off the curve) [15]: ~4 nM
- EC50 (read off the curve) [16]: ~2 nM
- EC50 (read off the curve) [17]: 0.1 to 0.2 nM
- EC50 (read off the curve) [18]: 0.1 to 0.2 nM
B3: R001032 (1A05) (antibody, human IgG1, kappa, V domains shown)
VH: LEQSGGGAEGGLVKPGGSLELCCKASGFSLSTSYWRCWVRQAPGKGLEWIGCIYAGSGDVTYYANWVNGRFTLSRDIDQSTGCLQLNSLTAADTAMYYCASGVGFGYFNLWGQGTLVTVSS
VL: ALVMTQTPSPVSAAVGGTVTINCQASEDIYSNLAWFQQKPGQPPKLLIYDASTLASGVPSRFSGSGSGTEFTLTISGLQSDDAATYYCLGVYTHISADNAFGGGTEVVVKR
notes: Rabbit variable domains of prior art 1A05 on human IgG1 kappa constant regions with AEASS; also called P013.S.01.B.A05
